Laboratory results from patent publication US20260042849.

Legend:
[1] = system: internally quenched peptide probe with CM 7049 (PFGL, SEQ ID NO: 104)
[2] = system: internally quenched peptide probe with CM 7053 (PQGL, SEQ ID NO: 9)
[3] = system: internally quenched peptide probe with CM 7055 (PHGL, SEQ ID NO: 10)
[4] = system: internally quenched peptide probe with CM 7047 (PYGL, SEQ ID NO: 103)
[5] = system: internally quenched peptide probe with CM RSPWGL (SEQ ID NO: 182)
[6] = system: internally quenched peptide probe with CM 7052 (PLGL, SEQ ID NO: 107)
[7] = system: internally quenched peptide probe with CM APMGLKH (SEQ ID NO: 7)
[8] = system: internally quenched peptide probe with CM 7050 (PRGL, SEQ ID NO: 105)
[9] = system: internally quenched peptide probe with CM 7051 (PMGL, SEQ ID NO: 106)
[10] = system: internally quenched peptide probe with CM 7041 (PWGL, SEQ ID NO: 100)
[11] = system: internally quenched peptide probe with CM PMGLKS (SEQ ID NO: 5)
[12] = system: internally quenched peptide probe with CM 7056 (PEGL, SEQ ID NO: 11)
[13] = system: internally quenched peptide probe with CM 7054 (PKGL, SEQ ID NO: 108)
[14] = system: internally quenched peptide probe with CM PMGLK (SEQ ID NO: 64)
[15] = system: internally quenched peptide probe with CM PWGLRS (SEQ ID NO: 181)

human recombinant MMP9 (R&D Systems, catalog No: 911-MP), sequence (chain, as listed by the source): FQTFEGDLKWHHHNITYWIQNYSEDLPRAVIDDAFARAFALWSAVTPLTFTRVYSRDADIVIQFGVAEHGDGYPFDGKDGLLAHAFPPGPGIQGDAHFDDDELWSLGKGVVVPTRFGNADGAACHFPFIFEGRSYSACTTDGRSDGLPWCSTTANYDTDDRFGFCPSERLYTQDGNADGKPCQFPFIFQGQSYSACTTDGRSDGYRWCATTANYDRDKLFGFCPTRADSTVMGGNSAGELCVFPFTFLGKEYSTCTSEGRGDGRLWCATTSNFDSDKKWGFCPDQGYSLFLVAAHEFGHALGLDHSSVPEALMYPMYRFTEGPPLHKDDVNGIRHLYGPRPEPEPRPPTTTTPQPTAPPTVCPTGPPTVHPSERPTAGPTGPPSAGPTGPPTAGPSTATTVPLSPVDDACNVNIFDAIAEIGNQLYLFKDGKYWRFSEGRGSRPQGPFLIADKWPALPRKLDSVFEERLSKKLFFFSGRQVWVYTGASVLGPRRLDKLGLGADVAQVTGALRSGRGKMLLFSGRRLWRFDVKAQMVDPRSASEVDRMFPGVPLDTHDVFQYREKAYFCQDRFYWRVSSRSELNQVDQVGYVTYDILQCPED

human recombinant MMP9 (R&D Systems, catalog No: 911-MP)
kcat/KM (M^-1 s^-1) [1]: greater than 5×10^2 M^-1 s^-1 | stated: cleaved (kcat/Km, M-1s-1, bar on a log axis) [1]: PFGL, MMP9 bar ends at about the 1x10^4 tick | stated: cleaved (kcat/Km, M-1s-1, bar on a log axis) [2]: PQGL, MMP9 bar ends between 1x10^3 and 1x10^4 | stated: cleaved (kcat/Km, M-1s-1, bar on a log axis) [3]: PHGL, MMP9 bar ends between 1x10^3 and 1x10^4 | kcat/KM (M^-1 s^-1) [4]: greater than 5×10^2 M^-1 s^-1 | stated: cleaved (kcat/Km, M-1s-1, bar on a log axis) [4]: PYGL, MMP9 bar ends at about the 1x10^4 tick | Probe Cleavage (kcat/KM) [5]: 870000 M⁻¹ s⁻¹ | Probe Cleavage (pM/s) [5]: 25500 pM/s | stated: cleaved (kcat/Km, M-1s-1, bar on a log axis) [6]: PLGL, MMP9 bar ends between 1x10^4 and 1x10^5 | Probe Cleavage (kcat/KM) [7]: 2.8e+06 M⁻¹ s⁻¹ | Probe Cleavage (pM/s) [7]: 115000 pM/s | stated: cleaved (kcat/Km, M-1s-1, bar on a log axis) [8]: PRGL, MMP9 bar ends between 1x10^4 and 1x10^5 | stated: cleaved (kcat/Km, M-1s-1, bar on a log axis) [9]: PMGL, MMP9 bar ends between 1x10^3 and 1x10^4, close under 1x10^4 | stated: cleaved (kcat/Km, M-1s-1, bar on a log axis) [10]: PWGL, MMP9 bar ends just above the 1x10^4 tick | Probe Cleavage (kcat/KM) [11]: 3.1e+06 M⁻¹ s⁻¹ | Probe Cleavage (pM/s) [11]: 133000 pM/s | kcat/KM (M^-1 s^-1) [12]: greater than 5×10^2 M^-1 s^-1 | stated: cleaved (kcat/Km, M-1s-1, bar on a log axis) [12]: PEGL, MMP9 bar ends between 1x10^2 and 1x10^3, just under the 1x10^3 tick | stated: cleaved (kcat/Km, M-1s-1, bar on a log axis) [13]: PKGL, MMP9 bar ends just above the 1x10^4 tick | Probe Cleavage (kcat/KM) [14]: 140000 M⁻¹ s⁻¹ | Probe Cleavage (pM/s) [14]: 6080 pM/s | Probe Cleavage (kcat/KM) [15]: 150000 M⁻¹ s⁻¹ | Probe Cleavage (pM/s) [15]: 3830 pM/s
